Biological target: IL-12 receptor complex composed of IL-12 receptor β1 (IL-12Rβ1) and IL-12 receptor β2 (IL-12Rβ2) (human) (UniProt P42701)
Assay: cell-based or functional assay

IL-12 receptor complex composed of IL-12 receptor β1 (IL-12Rβ1) and IL-12 receptor β2 (IL-12Rβ2) (human), sequence (Q99665 24-862, chain 2 of 2, other chains not shown): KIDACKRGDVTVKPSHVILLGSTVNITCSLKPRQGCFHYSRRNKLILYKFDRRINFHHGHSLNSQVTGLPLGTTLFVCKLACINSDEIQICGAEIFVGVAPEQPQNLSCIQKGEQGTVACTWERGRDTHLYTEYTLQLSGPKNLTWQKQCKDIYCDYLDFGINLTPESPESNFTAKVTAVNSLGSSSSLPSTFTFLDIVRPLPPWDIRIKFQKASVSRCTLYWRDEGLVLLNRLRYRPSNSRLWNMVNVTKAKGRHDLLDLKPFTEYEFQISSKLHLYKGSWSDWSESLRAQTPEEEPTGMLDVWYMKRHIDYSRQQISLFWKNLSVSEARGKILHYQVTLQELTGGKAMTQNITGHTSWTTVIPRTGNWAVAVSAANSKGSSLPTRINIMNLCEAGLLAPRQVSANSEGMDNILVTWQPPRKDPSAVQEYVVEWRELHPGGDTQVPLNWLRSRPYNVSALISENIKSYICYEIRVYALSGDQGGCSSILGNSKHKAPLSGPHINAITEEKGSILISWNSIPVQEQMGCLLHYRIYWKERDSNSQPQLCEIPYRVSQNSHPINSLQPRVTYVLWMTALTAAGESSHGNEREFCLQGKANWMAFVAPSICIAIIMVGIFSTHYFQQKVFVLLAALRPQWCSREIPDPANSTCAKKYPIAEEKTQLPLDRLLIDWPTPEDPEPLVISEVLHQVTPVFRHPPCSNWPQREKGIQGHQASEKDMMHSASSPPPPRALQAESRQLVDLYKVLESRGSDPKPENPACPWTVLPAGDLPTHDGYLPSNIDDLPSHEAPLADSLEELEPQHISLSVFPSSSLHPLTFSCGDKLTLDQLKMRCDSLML

fold reduction in potency (EC50 of STAT4 phosphorylation) relative to WT IL-12-Fc XENP27201 [fold]	Substance
2	IL-12-Fc fusion comprising IL-12p35(D55Q/N151D)
> 2	IL-12-Fc fusion comprising IL-12p35(E153Q)
> 2	IL-12-Fc fusion comprising IL-12p40(E235Q)
